# Assays:
# [1] = system: OmpR-6His (Dickeya dadantii 3937 (EC3937)); test: EMSA; settings: 10 mM Tris pH 7.5, 50 mM NaCl, 0.5 mM DTT, 1 mM MgCl2, 2.5% glycerol; 20 min at room temperature; 50 ng DNA in 20 ul; 6% acrylamide-TBE gel
# [2] = system: RcsB-6His (Dickeya dadantii 3937 (EC3937)?); test: EMSA; settings: 10 mM Tris pH 7.5, 50 mM NaCl, 0.5 mM DTT, 1 mM MgCl2, 2.5% glycerol; 20 min at room temperature; 50 ng DNA in 20 ul; 6% acrylamide-TBE gel
substance,measurement,setting,value
opgC promoter region,binding,[1],500 ng
same,binding,[2],300 ng
